Results reported in patent US20230141630.
Read-outs that look alike come from different tables or passages of the source.

Tests used:
[1] = system: Induro RT (Group II Intron-RT); details: 5'-phosphate primer; 50 C 30 min, 10 mM DTT; peak cDNA 7.2 kb
[2] = system: Group II Intron-RT (unspecified); details: 1 h at 55 C, Induro buffer, 1 ug circRNA, 100 ng RT
[3] = system: Induro RT (Group II Intron-RT); details: [none]; 38 C 5 min then 60 C 30 min

“GGATTCTAAAACGGATTACCAGGGATTTCAGTCGATGTACACGTTCGTCACATCTCATCTACCTCCCGGTTTTAATGAATACGATTTTGTACCAGAGTCCTTTGATCGTGACAAAACAATTGCACTGATAATGAATTCCTCTGGATCTACTGGGTTACCTAAGGGTGTGGCCCTTCCGCATAGAACTGCCTGCGTCAGATTCTCGCATGCCAGAGATCCTATTTTTGGCAATCAAATCATTCCGGATACTGCGATTTTAAGTGTTGTTCCATTCCATCACGGTTTTGGAATGTTTACTACACTCGGATATTTGATATGTGGATTTCGAGTCGTCTTAATGTATAGATTTGAAGAAGAGCTGTTTTTACGATCCCTTCAGGATTACAAAATTCAAAGTGCGTTGCTAGTACCAACCCTATTTTCATTCTTCGCCAAAAGCACTCTGATTGACAAATACGATTTATCTAATTTACACGAAATTGCTTCTGGGGGCGCACCTCTTTCGAAAGAAGTCGGGGAAGCGGTTGCAAAACGCTTCCATCTTCCAGGGATACGACAAGGATATGGGCTCACTGAGACTACATCAGCTATTCTGATTACACCCGAGGGGGATGATAAACCGGGCGCGGTCGGTAAAGTTGTTCCATTTTTTGAAGCGAAGGTTGTGGATCTGGATACCGGGAAAACGCTGGGCGTTAATCAGAGAGGCGAATTATGTGTCAGAGGACCTATGATTATGTCCGGTTATGTAAACAATCCGGAAGCGACCAACGCCTTGATTGACAAGGATGGATGGCTACATTCTGGAGACATAGCTTACTGGGACGAAGACGAACACTTCTTCATAGTTGACCGCTTGAAGTCTTTAATTAAATACAAAGGATATCAGGTGGCCCCCGCTGAATTGGAATCGATATTGTTACAACACCCCAACATCTTCGACGCGGGCGTGGCAGGTCTTCCCGACGATGACGCCGGTGAACTTCCCGCCGCCGTTGTTGTTTTGGAGCACGGAAAGACGATGACGGAAAAAGAGATCGTGGATTACGTCGCCAGTCAAGTAACAACCGCGAAAAAGTTGCGCGGAGGAGTTGTGTTTGTGGACGAAGTACCGAAAGGTCTTACCGGAAAACTCGACGCAAGAAAAATCAGAGAGATCCTCATAAAGGCCAAGAAGGGCGGAAAGTCCAAACTCGAGTAAGGTTAACCTGCAGGGAAAAAACAAAAAACAAAACGGCTATTATGCGTTACCGGCGAGACGCTACGGACTT / ACTTGCCTGTCGCTCTATCTTCTTTGTTTTTTCCCTGCAGGTTAACCTTACTC [circRNA 1.8 kb with RT primer]” gave an activity (copies per cDNA) [1] of 4.

Sequence “AAAATCCGTTGACCTTAAACGGTCGTGTGGGTTCAAGTCCCTCCACCCCCACGCCGGAAACGCAATAGCCGAAAAACAAAAAACAAAAAAACCCCCCTCTCCCTCCCCCCCTAACGTTACTGGCCGAAGCCGCTTGGAATAAGGCCGGTGTGCGTTTGTCTATATGTTATTTTCCACCATATTGCCGTCTTTTGGCAATGTGAGGGCCCGGAAACCTGGCCCTGTCTTCTTGACGAGCATTCCTAGGGGTCTTTCCCCTCTCGCCAAAGGAATGCAAGGTCTGTTGAATGTCGTAAAAAAACAAAAAACAAAACGGCTATTATGCGTTACCGGCGAGACGCTACGGACTT / TCCAGAGGAACTGCTTCCTTC [circRNA 0.4 kb with DNA primer]” has an activity [2] of 4.5 µg cDNA.

“UGAGGUAGUAGGUUGUAUAGUUUACUGACCAGGACGACGACA / TGTCGTCGTCCTGGTCAGTA [42 nt circularized small RNA with RT primer]” was tested, and the activity (copies per cDNA) [3] was greater than 100.
